From patent US6797695

Biological target: T1, Recombinant FGF-20 (rat, UniProt Q9EST9 1-212)
T1 construct: Immobilised on a CM5 sensor chip in the assay; also called recombinant rat FGF-20; rFGF-20
Assay: SPR (BIACORE 2000), FGF-20 immobilised on CM5, receptor extracellular domain as analyte

T1 sequence (Q9EST9 other isoform, or with tags, fused parts or gaps limits assumed): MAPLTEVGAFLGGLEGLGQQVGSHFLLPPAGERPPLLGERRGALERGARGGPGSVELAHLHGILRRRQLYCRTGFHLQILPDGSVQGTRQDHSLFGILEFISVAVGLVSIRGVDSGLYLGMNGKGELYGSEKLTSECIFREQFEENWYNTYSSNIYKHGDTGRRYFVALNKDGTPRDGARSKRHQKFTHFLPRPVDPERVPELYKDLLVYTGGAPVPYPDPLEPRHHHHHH

B1: recombinant extracellular domain of FGFR-3c (receptor)
chain: ESLGTEQRVVGRAAEVPGPEPGQQEQLVFGSGDAVELSCPPPGGGPMGPTVWVKDGTGLVPSERVLVGPQRLQVLNASHEDSGAYSCRQRLTQRVLCHFSVRVTDAPSSGDDEDGEDEAEDTGVDTGAPYWTRPERMDKKLLAVPAANTVRFRCPAAGNPTPSISWLKNGREFRGEHRIGGIKLRHQQWSLVMESVVPSDRGNYTCVVENKFGSIRQTYTLDVLERSPHRPILQAGLPANQTAVLGSDVEFHCKVYSDAQPHIQWLKHVEVNGSKVGPDGTPYVTVLKTAGANTTDKELEVLSLHNVTFEDAGEYTCLAGNSIGFSHHSAWLVVLPAEEELVEADEAGSVYAG
Kd: 217 nM | koff: 0.0247 s⁻¹ | kon: 115000 M⁻¹ s⁻¹
